From the DeepSol protein solubility set

Assay: soluble on expression in E. coli; label from the status in PepcDB or PDB records
In the case of “MNVDVLLKNVWLYQTVTQTFVQRNVAIKNDKFYYIYEEENVNLQPQKTINAENQWMIPGLIDAHMHIESSMTTPTIFSKAVVRYGVTTVIADAHEMANVFGLEGLKAFMAAETELDIFHAIPSSVPSTTPELETTGGIIGLAEVAELLKEPKVICLGEAMNFKGISYEPDSLIRQIIDLCQKQRPTMPLEGHCPKIEDQELADFLYSGITSDHTHQFPKTLKEKIEAGVFIQFQNKSITPENIQVIVDNDFYNYASIITDDVMADDLLKGHLNENVKKAVHAGLPIEKAIYMATYTPAKRMGLHDRGEIAPGKKADFLLLNDLESFDINTVYKSGKVVFEKGEPFHYPEKIEEFPATYQQTIQCKKLTEEDLLLKVATTKETVRCNVIQKQEIGTFTERITKEIPVENGLLQWQKANCALLIVMERYGKNGNISFSLMDQPLSEKGAIATTWAHDHHNLMVMGNTIEDILLAQNELLAMQGGYLVASDQQVMATCPLPIGGILSQAPIEQLGASLQKVRQAMQALGYQNMNEIMSFSTLSLPVSPAIKVTDFGMMDTKSQRFYPLVFPEDGVLLHENTH”, the “soluble on expression in E. coli” value is reported as “not soluble”.
In the case of “MGSDKIHHHHHHMLKCSICINDERITRILIVDGRPICKECKVFLEHPPDKEKIKKELEEILSKVDKAIVAYSGGKDSIVALYLAKEKYSIDVEAVMVDHGFIAPQAIKNAKNVAKYLDVPLTIIKRDYSDIFREALLKAKSPCRKCSRRTMEILRKYALKKGYRYMITGHELPFGHHPYRLMSGGIIQVRILSLMSEEERMKILKKLPVELPELPGYTSNCLILGPALQRFWERHGYSFEHRRIAALVRYGLLNKEKALKKVQKPEVPQWQWELVKKKLKLEDGF”, the “soluble on expression in E. coli” value is reported as “not soluble”.
With “MGSDKIHHHHHHMTNAAKTGVERTYEYKERINGILGMMEQAPAEQRNPVLEGLLRLIMETNERTIDCAENGKPFVSTWYGNAPEILTAMDIHFIVPVFDILLHEYFTDLYDVKEADKISLPDDICSLIRFGAYAIENKLLPRPTAIISMLEPCDAELMLHQYYQSSEHWGGVPTFGLDPAYGSTDEDFMYFAGELKRLIHFLVEITGQKYDVDKLRKVVAETNTQYELWAEYNELRRVTPCPHGSFQGSVPLWTLTQFISSGDPRATELIRMMIMDAEAKVKAGIGAVPNEQIRILWADLAPQWGDLLAPWLAEEWGANVVMDYQGYSPYTHIDTTSEDTMLYGLARRALHEVPMIRQGRGTVEVMIEDMTRIIKDYTINCVFWPGHMGHKDVSGSVHFMQELCRSLNVPLLCLTTSLFDERYTPLDKVKQQMSEFFEATGWSKNSST” the “soluble on expression in E. coli” value was “not soluble”.
With “MAHHHHHHMLRFTVPALVVFQNAYAPRVLNRMTPDRMELTMLILKERKKKVRYLGSNFQGFNDRVHLFNAQGGVRRGTRYIIETHHNRIQFKHRSRNNSMVDVRAVKMAGSQYDSIGNYTRMTWDNSLCTTNLLSDPNFKRHFKNMPKEETIGVLEEWGVRYILLDEIRKPSLMDCKYHKHHLYADKFWWSPSPETNHMRGDAEFKWKGNELIAYGDYNAHMQHPANFVTSSSSGSSGSGAATSKSAAAAAGSKKGASARPWFRRTVVVRKSQASDTKPLSTASKIAAAGTSK” the “soluble on expression in E. coli” value was “soluble”.
For “SAVFSDPQIAMVGETYKEITTRLGTCGCFATGEVSFENQGRSRVMLRNKGILHVYGEQGTGRFLGAEMMGPNAEHLAHLLAWAHQNKMTVSEMLDMPFYHPVIEEGVRTALRDLNAKLHLGPEMIKHCMDCGPGC”, the “soluble on expression in E. coli” value was “not soluble”.
In the case of “MSYNGSYHQNHHSTLQVKSKFDSEWRRFSIPMHSASGVSYDGFRSLVEKLHHLESVQFTLCYNSTGGDLLPITNDDNLRKSFESARPLLRLLIQRRGESWEEKYGYGTDSDKRWKGISSLMAQKPPKRSYSISNPEDFRQVSAIIDVDIVPEAHRRVRLCKHGQERPLGFYIRDGTSVRVTERGVVKVSGIFISRLVDGGLAESTGLLGVNDEVLEVNGIEVLGKTLDQVTDMMVANAHNLIITVKPANQRNTLSRGPSQQGTPNASEMSAATAAATGGIQRPMKMNGSSDGSYHPKQHDANDSDSGED”, the “soluble on expression in E. coli” value is reported as “not soluble”.
For “MSLGLGSSNRQTDDWNAKLYDERHRFVSAYGEDLIQWLAPKEGECVLDLGCGTGDLTEQIHQLGSRVIGVDVSESMIEQAKGKFPHLDFQVAEATDLSFSEKFDAIFSNAVLHWIKDAEEALTVIYRSLKPGGRFVAEFGGKGNVETIVNTLADTMSQADSRWSKEELPWFFPSIGQYTSLMEQVGFRVTHALHFNRPTLLEDGDGIRHWLAMFAESVLEGKSETERAEIVRFVEAEVKDALFDGTNWWADYKRIRVVGMKQEGHHHHHH”, the “soluble on expression in E. coli” value was “not soluble”.
In the case of “MLRMDLQTYQKIYSSLHNFGDVFRLSEEYSRPAGMLATILNQKIVKMTRFKHRRVYSREKELFMKWKQGRSILELAEYTYFPPTLMASLILKNCDFSRKSINWLFKHLDCIENRRLRKEVRKALNADYFFSPRAHEMQCRKGEMGEEIVRKWLDDREIAYCTEAEIRAKGDGKTPDFVLSNPIFIEDHMVSWIESKALFGDDFEHKHYAKKQFREYADIFGEGMVVYWYGFLEDLSSEDEGYLIKDYRFFEGYQEQTDELFNYLVYWLEHHHHHH”, the “soluble on expression in E. coli” value is reported as “not soluble”.
In the case of “MGDLKDGTYKLEEKNEKNGYRAVFEMTVKDGKITESKYDNINADGKSKTEDTKYEESMKAKSGVGPKEYIKQLNDSFVKAQSASGVEVVTGATHSSESFQNYAQQLIQAAQAGNTDTIEIDNGATLKDGTYSLKEKNDSNGYHTTFSMTVKDGKVTESNYDNVNADGKSKKDDTEYESKMKDVAGVGPKEYIETLNKEFVKAMGEEDGSPAGVEVVTGATHSTHSFINYAQQLVNAAEKGDTTEIVVDNIVTKLEHHHHHH”, the “soluble on expression in E. coli” value is reported as “soluble”.
In the case of “MARYEEVSVSGFEEFHRAVEQHNGKTIFAYFTGSKDAGGKSWCPDCVQAEPVVREGLKHISEGCVFIYCQVGEKPYWKDPNNDFRKNLKVTAVPTLLKYGTPQKLVESECLQANLVEMLFSED”, the “soluble on expression in E. coli” value is reported as “soluble”.
In the case of “MKLAVLGTGMIVKEVLPVLQKIDGIDLVAILSTVRSLTTAKDLAKAHHMPLATSKYEAILGNEEIDTVYIGLPNHLHFAYAKEALLAGKHVICEKPFTMTAGELDELVVIARKRKLILLEAITNQYLSNMTFIKEHLDQLGDIKIVECNYSQYSSRYDAFKRGDIAPAFNPKMGGGALRDLNIYNIHFVVGLFGRPKTVQYLANVEKGIDTSGMLVMDYEQFKVVCIGAKDCTAEIKSTIQGNKGSLAVLGATNTLPQVQLSLHGHEPQVINHNKHDHRMYEEFVAFRDMIDQRDFEKVNQALEHSRAVMAVLERAVHS”, the “soluble on expression in E. coli” value is reported as “not soluble”.
In the case of “MKLAAMIKKMCPSDSELSIPAKNCYRMVILGSSKVGKTAIVSRFLTGRFEDAYTPTIEDFHRKFYSIRGEVYQLDILDTSGNHPFPAMRRLSILTGDVFILVFSLDNRDSFEEVQRLRQQILDTKSCLKNKTKENVDVPLVICGNKGDRDFYREVDQREIEQLVGDDPQRCAYFEISAKKNSSLDQMFRALFAMAKLPSEMSPDLHRKVSVQYCDVLHKKALRNKKLLRAGSGGGGGDPGDAFGIVAPFARRPSVHSDLMYIREKASAGSQAKDKERCVIS”, the “soluble on expression in E. coli” value is reported as “soluble”.
With “MAHHHHHHMALTQSSGEPLRSMQGGVGGVSYADGAGQAPEHINRASATPVLTEEAVQSSIETFEDAACVREEAVRSYAEFHNNVESLHATMHTQLRPVWRTAMQLRPEILSDVRDEWCLRRRDNIPDGIPIPAAAAQHIALQETILSEVEDMLQVLRNTSVRFAAHFLSDEEKISMGANPAYLRAPDIDKEVVVSRSQSTSTSPQRALPASVMSVSSSAGAVASAPIKPSASSAATAAVHTPREGHSRHHQGSYVQHHHHHSDDEAGLVSSSSNRHVCSGKSSCGSRSAGEDPLLEELRKQYQLRIRELKAQSEAGASRRSEHGASQSAAAPPPRRGNRARVAASRSLSLPSWASSASASVLTSSSSTVSRR” the “soluble on expression in E. coli” value was “soluble”.
In the case of “DGRRMVQGLLTASLLTSIGGDLEVLASRMDLQFQRPVYTGETLVCELTVVSADPHTDGGVALVGDVAVRRVNRDDNSGQADTAAP”, the “soluble on expression in E. coli” value is reported as “not soluble”.
With “MGSDKIHHHHHHMTTAQQTENKGQQTRTVAELVEDIKALTTEIQELYCLDQIPWVLGVSWGKDSSTVLQLVWNAIAALPPEKRTKTVYVITTDTQVENPVVSAWVRKSLQNLKIAAKEQGMPIDPHLLQPVIQDTFWVNLIGKGYPAPRNQFRWCTPRLKINPANQFIREIVRANGETILVLGTRKAESSKRAATMKKHQVDRVRDRLSPNASLPNSLIYTPIEDWSNNDVWIYLNQWNNPWGQSNKELFTMYRGATADNECPLVVDTSTPSCGDSRFGCWVCTLVSKDKSMEAMIQNDEEKEWMQPLLDIRNELDIKDDRDKRDFRRIWGEVQLFERNKDGKISVDPIPGPYTKYWREYWLKRLLEAQIKTRRTAPENMRDITLITLEEMSEIRRIWLEDKHEFDDSLPRIYQEVTGEEFQDPRPGADYSLLGRDEWIVLEEICEGDAMHLELMAKLLDTERQYRKKTRRVGIYETLEKCFNTSSRSPEDAIKNARLKRELSEAVSQGDVAKVKQMTLGDVAAINEVDEGQSESDEEVTWASMKFKKENSEE” the “soluble on expression in E. coli” value was “not soluble”.
For “MRKTLTALFIAAALPTFAMAAPAANDLPPPPMEGGHMMGQHGPRHGGPMKELDLTREQRQQMGKLMGEQMKARHEITQRYLAKLPAAEQKALKDELKASHEKTQKDIRALLTPEQQKKFDELQKKREQRKAEWAEFQQWKADKKSNLEHHHHHH”, the “soluble on expression in E. coli” value was “soluble”.
In the case of “SLGALGVIAFRRGYYYYVGSANSGVHRVKRHFSIKKKKRWHIDYISAKMEVVGAILSKEPECGLAQRFESFERIRGFGCSDCDCESHLFYSPTLNLEFLST”, the “soluble on expression in E. coli” value is reported as “soluble”.
With “EFGYSEMSAIGALIKALPESCALHLANSSVIRYAQLYQVPSTIEVCCNRGTSGIEGSLSTAVGYAAGSDKLNFIVIGDLSFFYDMNALWNINVRPNLRILLLNNGGGEIFHTLPGLDMSGTSHKYITAVHKTSAKGWAEERGFLYQRVENEEQLAEAMKTFTQPEAMEQPVLMEVFSN” the “soluble on expression in E. coli” value was “not soluble”.
In the case of “VRLSRFDLAFDIFNRPEIVNLQHIKGGVTHKVFYGRGGELETKYWGSSGSNVQVRLYDKNKEIIAHKREEKLDLGVNPFWWRLEFQLRTKAIGEDMVQDIMNRLDNFGFYKLEHIRVDQRAFTIIFLSNPELLSLAFPNLKSDSIKKKKTRVRKLLREETNQFAEELKEVLIQNLPKLNTELQLLVGEFLTLEN”, the “soluble on expression in E. coli” value is reported as “not soluble”.
For “APIKVGINGFGRIGRMVFQAICDQGLIGTEIDVVAVVDMSTNAEYFAYQMKHDTVHGRPKYTVEAVKSSPSVETADVLVVNGHRIKCVKAQRNPADLPWGKLGVDYVIESTGLFTDKLKAEGHIKGGAKKVVISAPASGGAKTIVMGVNQHEYSPASHHVVSNASCTTNCLAPIVHVLTKENFGIETGLMTTIHSYTATQKTVDGVSLKDWRGGRAAAVNIIPSTTGAAKAVGMVIPSTKGKLTGMSFRVPTPDVSVVDLTFRATRDTSIQEIDKAIKKAAQTYMKGILGFTDEELVSADFINDNRSSVYDSKATLQNNLPGEKRFFKVVSWYDNEWAYSHRVVDLVRYMAAKDAASSKM”, the “soluble on expression in E. coli” value was “soluble”.
In the case of “MSLEGINPAVIMKAIMQSESVEQLSQEREKAEKLLKMYIAQDVAIHFISNIFTELNDALIVKAIEFSVADMKREGIDLPDIEFCWLSLGSEGRKEQLLRTDLDNAILFRDPENEASRETVQRVFLELGKRVTAILVACGFKPCPAEIMASNPEWCQPLSGWMNYFRKWIGTPEPKALMNSTIFFDFRPVYGSTALALEMKREINTEIARGRGFLQFFAKNALQNPPPLGFFRNFLVEKSREHAHEFDIKARALMPLSDAARVLACEFGVTDFLGTVERFRRIGQLLPSFQELAEEAAQGYEFLMRLRTEHGLAEKSSGRYIDPKHLNKMQRQKLRDLFTTIGKVQSMLNLRYQLDYIRAEGHHHHHH”, the “soluble on expression in E. coli” value is reported as “soluble”.
For “MTRLLYYEDAYLKEAKAKVLEVKDNALLLDQTIFYPTGGGQPHDRGWINGVEVLDVYKDEEGNVWHVVKELEKFKPGDEVELKLDWEYRYKLMRIHSALHLLENVLDQILGKGNWEVVGSGMTHEKGRLDVGYPENLNAYKEKIIELFNRYVDEGGEIKIWWEGEKRYTQIRDFDPIPCGGTHVKDIREIGHIKKLKRSSIGRGKQRLEIWLEDLEHHHHHH”, the “soluble on expression in E. coli” value was “not soluble”.
